Assay results as given in paper PMC5567289, “Characterization and structural determination of a new anti-MET function-blocking antibody with binding epitope distinct from the ligand binding domain” (Scientific Reports, 2017).
Changes are numbered by the printed parent chain.

Legend:
Conditions in all cases: both partners purified
MET567 = molecular target: T1, MET567 (Homo sapiens, UniProt P08581); assay: SEC; 6 µM Fab and 4 µM MET (3:2 molar ratio) co-incubated 140 minutes at room temperature in 25 mM Tris pH 7.4, 150 mM NaCl; Superdex 200 10/300
T1 construct: MET receptor (HGF/SF receptor), recombinant truncation of the ectodomain with the SEMA and CR domains and no Ig domain; The ectodomain is cut by furin into an alpha and a beta chain; written here as one chain; also called soluble fragment of the MET ectodomain comprising the SEMA and cysteine-rich (CR) domain

MET = molecular target: T2, MET (Homo sapiens, UniProt P08581); assay: SPR; Biacore; mean of three experiments; 107_A07 Fab purified sequentially on KappaSelect and GammaBind Plus; MET construct and who was immobilised not stated
T2 construct: MET receptor; Further methods are said to stand in the Supplementary Information file

MET741 = molecular target: T3, MET741 (Homo sapiens, UniProt P08581); assay: SEC; 6 µM Fab and 4 µM MET (3:2 molar ratio) co-incubated 140 minutes at room temperature in 25 mM Tris pH 7.4, 150 mM NaCl; Superdex 200 10/300
T3 construct: MET receptor (HGF/SF receptor), recombinant truncation of the ectodomain with the SEMA, CR and Ig1-2 domains; The ectodomain is cut by furin into an alpha and a beta chain; written here as one chain; also called soluble MET741; his-tagged MET741; source: CHO Lec3.2.8.1 cells, purified (NiNTA, cation exchange MonoS)

MET928 [1] = molecular target: T4, MET928 (UniProt P08581); assay: as above
T4 construct: MET receptor (HGF/SF receptor), recombinant ectodomain with the SEMA, CR and Ig1-4 domains; The ectodomain is cut by furin into an alpha and a beta chain; written here as one chain; also called MET extracellular domain (MET928); His-tagged MET928; source: recombinant

MET928 [2] = molecular target: T4, MET928; assay: SPR; CM5 chip coated with MET928; 7A2 scFv (134 nM, 268 nM), NK1 (238 nM, 476 nM) or a mixture (134 nM 7A2 scFv, 238 nM NK1); 60 s injections

T4 sequence (P08581 25-932): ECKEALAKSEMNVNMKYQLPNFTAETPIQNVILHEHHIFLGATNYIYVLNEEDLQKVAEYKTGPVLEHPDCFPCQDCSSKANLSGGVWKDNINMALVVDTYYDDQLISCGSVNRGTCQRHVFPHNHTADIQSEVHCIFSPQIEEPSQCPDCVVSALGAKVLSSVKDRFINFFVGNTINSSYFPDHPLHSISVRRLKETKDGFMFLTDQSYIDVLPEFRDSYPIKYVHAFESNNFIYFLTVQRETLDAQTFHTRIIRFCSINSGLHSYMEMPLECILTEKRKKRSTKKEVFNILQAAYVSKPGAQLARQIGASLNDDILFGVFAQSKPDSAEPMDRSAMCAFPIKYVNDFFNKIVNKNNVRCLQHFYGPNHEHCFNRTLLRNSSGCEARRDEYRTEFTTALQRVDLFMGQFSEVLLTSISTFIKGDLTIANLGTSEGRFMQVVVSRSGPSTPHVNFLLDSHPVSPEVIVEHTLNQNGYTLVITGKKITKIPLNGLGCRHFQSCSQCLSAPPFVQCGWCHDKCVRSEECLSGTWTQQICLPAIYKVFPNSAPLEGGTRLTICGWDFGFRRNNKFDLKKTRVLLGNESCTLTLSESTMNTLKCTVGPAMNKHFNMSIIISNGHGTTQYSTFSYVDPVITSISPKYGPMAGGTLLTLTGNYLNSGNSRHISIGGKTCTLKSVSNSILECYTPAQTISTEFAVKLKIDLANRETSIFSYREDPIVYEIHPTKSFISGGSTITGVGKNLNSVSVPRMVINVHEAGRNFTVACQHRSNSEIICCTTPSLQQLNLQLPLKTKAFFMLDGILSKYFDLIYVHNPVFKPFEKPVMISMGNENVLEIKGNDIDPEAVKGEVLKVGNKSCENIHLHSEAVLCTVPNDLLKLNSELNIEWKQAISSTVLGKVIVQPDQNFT
T1 sequence (P08581 39-564): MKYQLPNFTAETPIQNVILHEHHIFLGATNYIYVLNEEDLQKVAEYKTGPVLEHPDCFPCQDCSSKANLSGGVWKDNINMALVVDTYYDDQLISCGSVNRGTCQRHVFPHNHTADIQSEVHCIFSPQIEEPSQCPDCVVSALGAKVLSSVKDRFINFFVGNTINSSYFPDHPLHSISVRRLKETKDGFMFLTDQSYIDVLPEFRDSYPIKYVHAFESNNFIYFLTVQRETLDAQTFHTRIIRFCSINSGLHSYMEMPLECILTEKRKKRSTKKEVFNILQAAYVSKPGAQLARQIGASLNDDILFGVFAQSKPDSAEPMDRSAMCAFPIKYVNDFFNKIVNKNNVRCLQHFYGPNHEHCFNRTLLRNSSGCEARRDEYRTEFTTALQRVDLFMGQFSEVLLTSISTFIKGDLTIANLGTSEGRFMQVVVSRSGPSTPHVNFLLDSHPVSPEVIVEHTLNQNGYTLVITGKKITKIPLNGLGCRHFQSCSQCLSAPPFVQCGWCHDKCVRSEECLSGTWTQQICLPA
T3 sequence (P08581 25-741): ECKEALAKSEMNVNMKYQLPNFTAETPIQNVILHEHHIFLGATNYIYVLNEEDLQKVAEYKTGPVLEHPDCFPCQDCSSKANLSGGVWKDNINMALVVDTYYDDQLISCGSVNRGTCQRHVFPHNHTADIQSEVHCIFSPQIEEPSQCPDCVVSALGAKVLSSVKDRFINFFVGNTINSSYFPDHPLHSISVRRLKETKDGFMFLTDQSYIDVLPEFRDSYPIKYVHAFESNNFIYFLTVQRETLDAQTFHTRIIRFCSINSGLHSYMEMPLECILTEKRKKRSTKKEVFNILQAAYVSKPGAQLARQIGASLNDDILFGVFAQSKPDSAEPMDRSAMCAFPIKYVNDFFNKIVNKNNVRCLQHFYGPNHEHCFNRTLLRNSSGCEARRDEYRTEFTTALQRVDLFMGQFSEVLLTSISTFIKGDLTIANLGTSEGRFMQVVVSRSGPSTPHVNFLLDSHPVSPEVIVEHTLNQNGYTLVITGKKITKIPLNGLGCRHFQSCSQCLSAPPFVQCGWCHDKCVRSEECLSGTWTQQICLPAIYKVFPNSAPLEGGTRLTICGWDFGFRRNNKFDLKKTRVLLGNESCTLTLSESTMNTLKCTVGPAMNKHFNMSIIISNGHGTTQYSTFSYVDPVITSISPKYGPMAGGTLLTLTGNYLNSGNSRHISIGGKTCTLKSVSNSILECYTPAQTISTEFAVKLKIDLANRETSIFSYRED
T2 sequence (P08581 25-1390): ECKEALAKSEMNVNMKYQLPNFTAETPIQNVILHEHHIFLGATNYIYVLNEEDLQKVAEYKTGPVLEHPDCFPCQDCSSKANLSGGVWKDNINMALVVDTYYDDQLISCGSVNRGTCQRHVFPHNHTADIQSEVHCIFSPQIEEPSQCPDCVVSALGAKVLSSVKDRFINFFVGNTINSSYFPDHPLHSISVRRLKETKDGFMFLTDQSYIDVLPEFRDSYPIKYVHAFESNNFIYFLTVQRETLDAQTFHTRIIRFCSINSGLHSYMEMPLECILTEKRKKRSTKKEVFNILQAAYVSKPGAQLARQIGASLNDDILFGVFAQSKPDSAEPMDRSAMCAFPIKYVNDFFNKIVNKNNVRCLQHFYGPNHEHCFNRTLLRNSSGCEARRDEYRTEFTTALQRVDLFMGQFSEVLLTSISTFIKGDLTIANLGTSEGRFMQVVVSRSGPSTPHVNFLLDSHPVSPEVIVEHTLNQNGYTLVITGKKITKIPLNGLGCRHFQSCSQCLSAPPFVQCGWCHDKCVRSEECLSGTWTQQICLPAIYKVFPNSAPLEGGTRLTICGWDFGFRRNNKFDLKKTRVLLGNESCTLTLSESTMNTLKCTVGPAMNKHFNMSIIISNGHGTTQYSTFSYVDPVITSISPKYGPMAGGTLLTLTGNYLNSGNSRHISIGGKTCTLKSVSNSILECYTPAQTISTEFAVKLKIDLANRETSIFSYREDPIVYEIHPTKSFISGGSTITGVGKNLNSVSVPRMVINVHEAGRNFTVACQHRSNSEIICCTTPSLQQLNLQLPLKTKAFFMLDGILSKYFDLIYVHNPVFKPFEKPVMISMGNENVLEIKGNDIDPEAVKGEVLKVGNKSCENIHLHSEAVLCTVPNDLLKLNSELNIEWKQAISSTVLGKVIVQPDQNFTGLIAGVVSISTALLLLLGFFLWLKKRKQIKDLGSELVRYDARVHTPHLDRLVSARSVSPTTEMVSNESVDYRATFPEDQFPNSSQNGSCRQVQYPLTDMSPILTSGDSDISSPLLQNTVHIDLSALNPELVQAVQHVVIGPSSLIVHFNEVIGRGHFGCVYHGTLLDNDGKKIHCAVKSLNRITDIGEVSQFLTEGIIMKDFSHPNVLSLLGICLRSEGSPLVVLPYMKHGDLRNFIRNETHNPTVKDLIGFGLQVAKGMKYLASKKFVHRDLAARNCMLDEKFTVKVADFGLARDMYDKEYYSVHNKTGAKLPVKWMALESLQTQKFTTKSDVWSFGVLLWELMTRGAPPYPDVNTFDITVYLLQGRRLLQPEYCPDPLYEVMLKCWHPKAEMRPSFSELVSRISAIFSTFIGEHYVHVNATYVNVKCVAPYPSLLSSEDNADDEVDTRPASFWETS

B1: 107_A07 Fab (Fab, V domains shown)
VH: QMQLVQSGAEVKKPGAPVKVSCKVSGYTFTDYYMHWVQQAPGKGLEWMGLVDPEDGETIYAEKFQGRVTITADTSTDTAYMELSSLRSEDTAVYYCATDATTPYWGMMWWGQGTLVTVSS
VL: DIQMIQSPSSLSASVGDRVTITCQASQDISNYLNWYQQKPGRAPKVLIYDASNLETGVPSRFSGSGSGTEFTLTISNLRPDDFATYYCQQGDSFPLTFGGGTKVEIK
notes: Fab heavy chain is chain H of the deposited structure PDB 5LSP; Fab light chain is chain L of the deposited structure PDB 5LSP
Does B1 bind (MET567)?
Result: no binding (tested: 6 µM Fab, 4 µM MET567)

What about the Kd (MET) of the same binder?
The Kd was 3.2 nM.

B2: 7A2 Fab (Fab, V domains shown)
VH: B1 VH with W105Y, M108D, W109V
VL: B1 VL with I5T
notes: as the light chain of m1 (PDB 5LSP chain L): the matured clones came from VH CDR3 mutagenesis and VL mutants were not identified; also called Fab 7A2; Fab-formatted 7A2
Does B2 bind (MET567)?
Result: no binding (tested: 6 µM Fab, 4 µM MET567)

Does B2 bind (MET741)?
Result: binds

Does B2 bind (MET928 [1])?
Result: binds

B3: 7A2 scFv (scFv, V domains shown)
VH: B1 VH with W105Y, M108D, W109V
VL: B1 VL with I5T
notes: VH of 7A2: as the VH of m1 (PDB 5LSP chain H) except in CDR3, where 7A2 has Y105 instead of W105; VL of 7A2: as the VL of m1 (PDB 5LSP chain L); also called clone 7A2; source: Pichia pastoris, purified (Ni-NTA, gel filtration)
Does B3 bind (MET928 [2])?
Result: binds
